Measurements as given in PMC10786891, “Massively parallel profiling of RNA-targeting CRISPR-Cas13d”.

Molecular target: T1, EsCas13d, nuclease-dead (Eubacterium siraeum, UniProt B0MS50, R295A;H300A;R849A;H854A)
T1 sequence: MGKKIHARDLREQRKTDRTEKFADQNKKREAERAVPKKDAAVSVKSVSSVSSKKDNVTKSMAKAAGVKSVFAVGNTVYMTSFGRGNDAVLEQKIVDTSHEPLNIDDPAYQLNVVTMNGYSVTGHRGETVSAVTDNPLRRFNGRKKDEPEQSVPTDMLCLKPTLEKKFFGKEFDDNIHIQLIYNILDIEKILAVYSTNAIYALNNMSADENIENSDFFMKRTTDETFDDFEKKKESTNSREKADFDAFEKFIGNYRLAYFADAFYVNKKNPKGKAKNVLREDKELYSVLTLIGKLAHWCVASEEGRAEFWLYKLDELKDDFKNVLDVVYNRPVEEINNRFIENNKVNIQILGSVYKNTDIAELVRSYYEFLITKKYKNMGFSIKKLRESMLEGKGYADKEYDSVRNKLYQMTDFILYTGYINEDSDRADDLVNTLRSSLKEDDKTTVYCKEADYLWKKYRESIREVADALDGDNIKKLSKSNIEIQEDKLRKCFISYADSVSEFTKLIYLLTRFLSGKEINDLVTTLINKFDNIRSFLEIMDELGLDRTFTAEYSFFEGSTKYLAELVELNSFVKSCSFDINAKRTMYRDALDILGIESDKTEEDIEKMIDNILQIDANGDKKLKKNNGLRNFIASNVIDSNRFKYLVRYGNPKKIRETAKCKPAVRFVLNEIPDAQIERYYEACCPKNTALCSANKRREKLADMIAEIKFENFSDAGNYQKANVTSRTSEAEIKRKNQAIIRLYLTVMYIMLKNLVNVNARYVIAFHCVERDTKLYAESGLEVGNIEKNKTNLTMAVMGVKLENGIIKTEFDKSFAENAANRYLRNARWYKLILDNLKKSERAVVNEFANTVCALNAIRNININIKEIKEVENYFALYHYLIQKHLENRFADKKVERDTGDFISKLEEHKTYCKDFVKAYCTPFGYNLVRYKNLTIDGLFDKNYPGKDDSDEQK
Test: crRNA (strand 1, pre-loaded); Mg2+; 40 mM Tris-HCl pH 7.5, 150 mM NaCl, 6 mM MgCl2, 1 mM DTT, 0.1% Tween-20, 0.2 mg/ml BSA; 25 C; 10 min per concentration, then washed
Details: tags: His6-TwinStrep-SUMO cleaved; N-terminal SNAP kept (SNAP-Surface 488); label: 3' end held by stalled T7 RNA polymerase

Row | Binder | Kd [nM]
1 | target 1 insA 3' of 19,insG 3' of 18 (mixed) RNA 1: CACCCGUGCAAAAAUGCAGGGGUCUAAAACUGAGCGGAUAACCUCUCUAUGG RNA 2: GGGAAUGGAUCCACAUCUACGAAUUCGUACCAUAAGGAGAGGUUAUCCGCUCACCGAGAUCGGAAGAGCACACGU | 97 ± 30
2 | target 1 C6U,G12A (mixed) RNA 1: CACCCGUGCAAAAAUGCAGGGGUCUAAAACUGAGCGGAUAACCUCUCUAUGG RNA 2: GGGAAUGGAUCCACAUCUACGAAUUCGUACCAUAGAGAGAUUAUCUGCUCACCGAGAUCGGAAGAGCACACGU | 11.1 ± 0.5
3 | target 1 insG 3' of 18,insG 3' of 3 (mixed) RNA 1: CACCCGUGCAAAAAUGCAGGGGUCUAAAACUGAGCGGAUAACCUCUCUAUGG RNA 2: GGGAAUGGAUCCACAUCUACGAAUUCGUACCAUAGGAGAGGUUAUCCGCUGCACCGAGAUCGGAAGAGCACACGU | 40 ± 2.7
4 | target 1 insU 3' of 7,insU 3' of 7 (mixed) RNA 1: CACCCGUGCAAAAAUGCAGGGGUCUAAAACUGAGCGGAUAACCUCUCUAUGG RNA 2: GGGAAUGGAUCCACAUCUACGAAUUCGUACCAUAGAGAGGUUAUCUUCGCUCACCGAGAUCGGAAGAGCACACGU | 7.9 ± 0.4
5 | target 1 insG 3' of 19,insU 3' of 5 (mixed) RNA 1: CACCCGUGCAAAAAUGCAGGGGUCUAAAACUGAGCGGAUAACCUCUCUAUGG RNA 2: GGGAAUGGAUCCACAUCUACGAAUUCGUACCAUGAGAGAGGUUAUCCGUCUCACCGAGAUCGGAAGAGCACACGU | 86 ± 18
6 | target 1 insC 3' of 18,insG 3' of 16 (mixed) RNA 1: CACCCGUGCAAAAAUGCAGGGGUCUAAAACUGAGCGGAUAACCUCUCUAUGG RNA 2: GGGAAUGGAUCCACAUCUACGAAUUCGUACCAUACGAGGAGGUUAUCCGCUCACCGAGAUCGGAAGAGCACACGU | 70 ± 13
7 | target 1 insA 3' of 12 (mixed) RNA 1: CACCCGUGCAAAAAUGCAGGGGUCUAAAACUGAGCGGAUAACCUCUCUAUGG RNA 2: GGGAAUGGAUCCACAUCUACGAAUUCGUACCAUAGAGAGGAUUAUCCGCUCACCGAGAUCGGAAGAGCACACGU | 29.5 ± 2.9
8 | target 1 insU 3' of 21,insG 3' of 6 (mixed) RNA 1: CACCCGUGCAAAAAUGCAGGGGUCUAAAACUGAGCGGAUAACCUCUCUAUGG RNA 2: GGGAAUGGAUCCACAUCUACGAAUUCGUACCUAUAGAGAGGUUAUCCGGCUCACCGAGAUCGGAAGAGCACACGU | 28.1 ± 3
9 | target 1 G12A,U19G (mixed) RNA 1: CACCCGUGCAAAAAUGCAGGGGUCUAAAACUGAGCGGAUAACCUCUCUAUGG RNA 2: GGGAAUGGAUCCACAUCUACGAAUUCGUACCAGAGAGAGAUUAUCCGCUCACCGAGAUCGGAAGAGCACACGU | 54 ± 15
10 | target 1 U10C,A16G (mixed) RNA 1: CACCCGUGCAAAAAUGCAGGGGUCUAAAACUGAGCGGAUAACCUCUCUAUGG RNA 2: GGGAAUGGAUCCACAUCUACGAAUUCGUACCAUAGGGAGGUCAUCCGCUCACCGAGAUCGGAAGAGCACACGU | 62 ± 7
11 | target 1 insG 3' of 14,insC 3' of 12 (mixed) RNA 1: CACCCGUGCAAAAAUGCAGGGGUCUAAAACUGAGCGGAUAACCUCUCUAUGG RNA 2: GGGAAUGGAUCCACAUCUACGAAUUCGUACCAUAGAGAGGGCUUAUCCGCUCACCGAGAUCGGAAGAGCACACGU | 16.7 ± 0.9
12 | target 1 insA 3' of 17,insC 3' of 12 (mixed) RNA 1: CACCCGUGCAAAAAUGCAGGGGUCUAAAACUGAGCGGAUAACCUCUCUAUGG RNA 2: GGGAAUGGAUCCACAUCUACGAAUUCGUACCAUAGAAGAGGCUUAUCCGCUCACCGAGAUCGGAAGAGCACACGU | 23 ± 4
13 | target 1 insU 3' of 15,insU 3' of 13 (mixed) RNA 1: CACCCGUGCAAAAAUGCAGGGGUCUAAAACUGAGCGGAUAACCUCUCUAUGG RNA 2: GGGAAUGGAUCCACAUCUACGAAUUCGUACCAUAGAGUAGUGUUAUCCGCUCACCGAGAUCGGAAGAGCACACGU | 20 ± 7
14 | target 1 insG 3' of 6,insA 3' of 5 (mixed) RNA 1: CACCCGUGCAAAAAUGCAGGGGUCUAAAACUGAGCGGAUAACCUCUCUAUGG RNA 2: GGGAAUGGAUCCACAUCUACGAAUUCGUACCAUAGAGAGGUUAUCCGGACUCACCGAGAUCGGAAGAGCACACGU | 19.3 ± 1.8
15 | target 1 insG 3' of 18,insC 3' of 12 (mixed) RNA 1: CACCCGUGCAAAAAUGCAGGGGUCUAAAACUGAGCGGAUAACCUCUCUAUGG RNA 2: GGGAAUGGAUCCACAUCUACGAAUUCGUACCAUAGGAGAGGCUUAUCCGCUCACCGAGAUCGGAAGAGCACACGU | ~80
16 | target 1 insA 3' of 5,insU 3' of 4 (mixed) RNA 1: CACCCGUGCAAAAAUGCAGGGGUCUAAAACUGAGCGGAUAACCUCUCUAUGG RNA 2: GGGAAUGGAUCCACAUCUACGAAUUCGUACCAUAGAGAGGUUAUCCGACUUCACCGAGAUCGGAAGAGCACACGU | 9.8 ± 1
17 | target 1 C4G,C6G (mixed) RNA 1: CACCCGUGCAAAAAUGCAGGGGUCUAAAACUGAGCGGAUAACCUCUCUAUGG RNA 2: GGGAAUGGAUCCACAUCUACGAAUUCGUACCAUAGAGAGGUUAUCGGGUCACCGAGAUCGGAAGAGCACACGU | 3.71 ± 0.17
18 | target 1 insC 3' of 15,insG 3' of 6 (mixed) RNA 1: CACCCGUGCAAAAAUGCAGGGGUCUAAAACUGAGCGGAUAACCUCUCUAUGG RNA 2: GGGAAUGGAUCCACAUCUACGAAUUCGUACCAUAGAGCAGGUUAUCCGGCUCACCGAGAUCGGAAGAGCACACGU | 22.1 ± 0.9
19 | target 1 insU 3' of 20,insC 3' of 13 (mixed) RNA 1: CACCCGUGCAAAAAUGCAGGGGUCUAAAACUGAGCGGAUAACCUCUCUAUGG RNA 2: GGGAAUGGAUCCACAUCUACGAAUUCGUACCAUUAGAGAGCGUUAUCCGCUCACCGAGAUCGGAAGAGCACACGU | 28 ± 3
20 | target 1 del4,del14 (mixed) RNA 1: CACCCGUGCAAAAAUGCAGGGGUCUAAAACUGAGCGGAUAACCUCUCUAUGG RNA 2: GGGAAUGGAUCCACAUCUACGAAUUCGUACCAUAGAGGGUUAUCCGUCACCGAGAUCGGAAGAGCACACGU | 84 ± 32
21 | target 1 G5U,C7G (mixed) RNA 1: CACCCGUGCAAAAAUGCAGGGGUCUAAAACUGAGCGGAUAACCUCUCUAUGG RNA 2: GGGAAUGGAUCCACAUCUACGAAUUCGUACCAUAGAGAGGUUAUGCUCUCACCGAGAUCGGAAGAGCACACGU | 16.8 ± 0.9
22 | target 1 insC 3' of 14,insG 3' of 3 (mixed) RNA 1: CACCCGUGCAAAAAUGCAGGGGUCUAAAACUGAGCGGAUAACCUCUCUAUGG RNA 2: GGGAAUGGAUCCACAUCUACGAAUUCGUACCAUAGAGACGGUUAUCCGCUGCACCGAGAUCGGAAGAGCACACGU | 25.6 ± 2.7
23 | target 1 insA 3' of 8,insG 3' of 1 (mixed) RNA 1: CACCCGUGCAAAAAUGCAGGGGUCUAAAACUGAGCGGAUAACCUCUCUAUGG RNA 2: GGGAAUGGAUCCACAUCUACGAAUUCGUACCAUAGAGAGGUUAUACCGCUCAGCCGAGAUCGGAAGAGCACACGU | 18.3 ± 0.8
24 | target 1 C7A,G15C (mixed) RNA 1: CACCCGUGCAAAAAUGCAGGGGUCUAAAACUGAGCGGAUAACCUCUCUAUGG RNA 2: GGGAAUGGAUCCACAUCUACGAAUUCGUACCAUAGACAGGUUAUACGCUCACCGAGAUCGGAAGAGCACACGU | 84 ± 25
